Biological target: spike protein of SARS-CoV-2 clinical isolate HH01 (Wuhan-like), on live virus (SARS-CoV-2 (Wuhan-like HH01)) (UniProt P0DTC2)
Assay: cell-based or functional assay

Substance	IC50, inhibition of SARS-CoV-2 HH01 replication on Calu-3 cells	IC90, inhibition of SARS-CoV-2 HH01 replication on Calu-3 cells
recombinant minibinder LCB1 with N- and C-terminal Ser/Gly extensions and C-terminal Cys (designed binder)	10 to 100 nM	
virus-binding conjugate P: PLGA-PEG-Mal / PLGA (1:1) particle loaded with LCB1	4.86 µg/mL	4.99 µg/mL
virus-binding conjugate S: PLGA-only particle incubated with LCB1 (control, adsorbed minibinder)	1 to 10 µg/mL	

Source: patent EP4556028A1
